Test results published in patent US20260028587A1.

Biological target: human TMEM119 (transmembrane protein 119) (human) (UniProt Q4V9L6)
Assay: flow cytometry on primary human brain cell suspensions

Chain of UniProt Q4V9L6 (Q4V9L6 26-283): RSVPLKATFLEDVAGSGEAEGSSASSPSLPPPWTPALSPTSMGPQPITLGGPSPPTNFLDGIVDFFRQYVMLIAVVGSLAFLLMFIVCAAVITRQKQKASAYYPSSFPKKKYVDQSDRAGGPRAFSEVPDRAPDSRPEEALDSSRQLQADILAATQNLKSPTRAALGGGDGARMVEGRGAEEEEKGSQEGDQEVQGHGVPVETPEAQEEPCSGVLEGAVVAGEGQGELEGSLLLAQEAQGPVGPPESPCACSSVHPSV

percent of CD45+/CD11B+ human brain cells stained: 70 to 98%
Substance: Mouse anti-hTMEM119 monoclonal clone A16075D (antibody)
